Measurements as given in paper PMC9270373.
Square brackets hold non-standard residues; d marks the D form. Ends that are not written are not given here. pT = C[C@@H](OP(=O)(O)O)[C@H](N)C(=O)O

Tests used:
[1] = biological target: potato 14-3-3 protein St14f (Solanum tuberosum L. (potato)); assay: crystal structure; St14f free form, 2.5 Å; hanging drop, 12% (w/v) PEG 8000, 0.2 M ammonium tartrate pH 7, 277 K; three chains (A, B, C) in the asymmetric unit, dimers AA and BC
[2] = biological target: St14f D217A (Solanum tuberosum L. (potato)); assay: thermal shift assay; 10 µM St14f with no and with 100 µM StFDL1 peptide; SYPRO Orange; 10 mM HEPES pH 7.5, 0.15 M NaCl; heated from 25 to 99 °C; ΔTm = melting temperature difference with and without the peptide
[3] = biological target: St14f I221A M222A (Solanum tuberosum L. (potato)); assay: as above
[4] = biological target: St14f L229A (Solanum tuberosum L. (potato)); assay: as above
[5] = biological target: St14f S214L (Solanum tuberosum L. (potato)); assay: as above
[6] = biological target: St14f S214M (Solanum tuberosum L. (potato)); assay: as above
[7] = biological target: St14f S214T (Solanum tuberosum L. (potato)); assay: as above
[8] = biological target: St14f S218G (Solanum tuberosum L. (potato)); assay: as above
[9] = biological target: St14f S218L (Solanum tuberosum L. (potato)); assay: as above
[10] = biological target: St14f S218M (Solanum tuberosum L. (potato)); assay: as above
[11] = biological target: St14f Y215A (Solanum tuberosum L. (potato)); assay: as above
[12] = biological target: potato 14-3-3 protein St14f (Solanum tuberosum L. (potato)); assay: as above

| stoichiometry N [1] | ΔTm [2] [°C] | ΔTm [3] [°C] | ΔTm [4] [°C] | ΔTm [5] [°C] | ΔTm [6] [°C] | ΔTm [7] [°C] | ΔTm [8] [°C] | ΔTm [9] [°C] | ΔTm [10] [°C] | ΔTm [11] [°C] | ΔTm [12] [°C] | Molecule |
| --- | --- | --- | --- | --- | --- | --- | --- | --- | --- | --- | --- | --- |
| 2 |  |  |  |  |  |  |  |  |  |  |  | potato 14-3-3 protein St14f (natural protein) |
|  | 6.67 | 4.63 | 6.22 | 4.26 | 3.6 | 4.01 | 6.37 | 7.61 | 7.48 | 4.42 | 4.03 | LNRTS[pT]APF [StFDL1 peptide (LNRTSpTAPF)] |
